Assay results: paper PMC314469, “Protein Interaction Networks by Proteome Peptide Scanning” (PLoS Biology, 2004)

Columns and labels:
Experiment in all cases: SPOT array
[1] = biological target: T1, Boi1 SH3 (BOI1_YEAST), P38041
T1 chain: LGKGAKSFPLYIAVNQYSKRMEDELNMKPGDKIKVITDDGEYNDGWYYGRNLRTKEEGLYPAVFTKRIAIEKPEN

[2] = biological target: T2, Boi2 SH3 (BOI2_YEAST), P39969
T2 chain: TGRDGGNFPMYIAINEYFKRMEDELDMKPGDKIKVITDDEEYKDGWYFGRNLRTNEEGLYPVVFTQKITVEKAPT

[3] = biological target: T3, Rvs167 SH3 (RV167_YEAST), P39743
T3 chain: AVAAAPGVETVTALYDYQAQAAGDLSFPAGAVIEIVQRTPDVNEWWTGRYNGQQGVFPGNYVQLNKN

[4] = biological target: T4, Yfr024 SH3 (LSB3_YEAST), P43603
T4 chain: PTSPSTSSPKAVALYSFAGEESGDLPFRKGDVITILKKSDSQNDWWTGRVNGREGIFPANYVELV

[5] = biological target: T5, Yhr016c SH3 (YSC84_YEAST), P32793
T5 chain: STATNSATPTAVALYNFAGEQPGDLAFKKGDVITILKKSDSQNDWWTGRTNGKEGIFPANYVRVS

IVNPFIPRRPYSNV [YDR409W 859-872]
normalised SPOT signal, Boehringer light units (BLU); mean over the file's lines of this peptide [1]: 1120 | normalised SPOT signal, Boehringer light units (BLU); mean over the file's lines of this peptide [2]: 142 | normalised SPOT signal, Boehringer light units (BLU); mean over the file's lines of this peptide [3]: 650 | normalised SPOT signal, Boehringer light units (BLU); mean over the file's lines of this peptide [4]: 7710 | normalised SPOT signal, Boehringer light units (BLU); mean over the file's lines of this peptide [5]: 1650

ISRPVQPFKVGSIG [YPR185W 368-381]
normalised SPOT signal, Boehringer light units (BLU); mean over the file's lines of this peptide [1]: 60.8 | normalised SPOT signal, Boehringer light units (BLU); mean over the file's lines of this peptide [2]: 79.1 | normalised SPOT signal, Boehringer light units (BLU); mean over the file's lines of this peptide [3]: 22.7 | normalised SPOT signal, Boehringer light units (BLU); mean over the file's lines of this peptide [4]: 1120 | normalised SPOT signal, Boehringer light units (BLU); mean over the file's lines of this peptide [5]: 185

KDHPYDPEKDSVLK [YGR020C 97-110]
normalised SPOT signal, Boehringer light units (BLU); mean over the file's lines of this peptide [1]: 51.3 | normalised SPOT signal, Boehringer light units (BLU); mean over the file's lines of this peptide [2]: 3.7 | normalised SPOT signal, Boehringer light units (BLU); mean over the file's lines of this peptide [3]: 21.7 | normalised SPOT signal, Boehringer light units (BLU); mean over the file's lines of this peptide [4]: 0 | normalised SPOT signal, Boehringer light units (BLU); mean over the file's lines of this peptide [5]: 0

KFHPPEPYKGKGIY [YHR147C 187-200]
normalised SPOT signal, Boehringer light units (BLU); mean over the file's lines of this peptide [1]: 96.1 | normalised SPOT signal, Boehringer light units (BLU); mean over the file's lines of this peptide [2]: 38.2 | normalised SPOT signal, Boehringer light units (BLU); mean over the file's lines of this peptide [3]: 53.2 | normalised SPOT signal, Boehringer light units (BLU); mean over the file's lines of this peptide [4]: 45.7 | normalised SPOT signal, Boehringer light units (BLU); mean over the file's lines of this peptide [5]: 114

ISTPPPPPKMAIPA [YFR019W 390-403]
normalised SPOT signal, Boehringer light units (BLU); mean over the file's lines of this peptide [1]: 110 | normalised SPOT signal, Boehringer light units (BLU); mean over the file's lines of this peptide [2]: 34.4 | normalised SPOT signal, Boehringer light units (BLU); mean over the file's lines of this peptide [3]: 26.6 | normalised SPOT signal, Boehringer light units (BLU); mean over the file's lines of this peptide [4]: 335 | normalised SPOT signal, Boehringer light units (BLU); mean over the file's lines of this peptide [5]: 189

IRYPVTPNKASLDR [YOR384W 132-145]
normalised SPOT signal, Boehringer light units (BLU); mean over the file's lines of this peptide [1]: 86.7 | normalised SPOT signal, Boehringer light units (BLU); mean over the file's lines of this peptide [2]: 166 | normalised SPOT signal, Boehringer light units (BLU); mean over the file's lines of this peptide [3]: 41.2 | normalised SPOT signal, Boehringer light units (BLU); mean over the file's lines of this peptide [4]: 94.5 | normalised SPOT signal, Boehringer light units (BLU); mean over the file's lines of this peptide [5]: 207

ISNPSSPAKTKRDI [YMR137C 188-201]
normalised SPOT signal, Boehringer light units (BLU); mean over the file's lines of this peptide [1]: 90.8 | normalised SPOT signal, Boehringer light units (BLU); mean over the file's lines of this peptide [2]: 48.8 | normalised SPOT signal, Boehringer light units (BLU); mean over the file's lines of this peptide [3]: 17.6 | normalised SPOT signal, Boehringer light units (BLU); mean over the file's lines of this peptide [4]: 108 | normalised SPOT signal, Boehringer light units (BLU); mean over the file's lines of this peptide [5]: 130

ITSPPLPPRADSIE [YMR192W 122-135]
normalised SPOT signal, Boehringer light units (BLU); mean over the file's lines of this peptide [1]: 181 | normalised SPOT signal, Boehringer light units (BLU); mean over the file's lines of this peptide [2]: 35.5 | normalised SPOT signal, Boehringer light units (BLU); mean over the file's lines of this peptide [3]: 31300 | normalised SPOT signal, Boehringer light units (BLU); mean over the file's lines of this peptide [4]: 39300 | normalised SPOT signal, Boehringer light units (BLU); mean over the file's lines of this peptide [5]: 93200

KDAPIEPPKYMGMG [YOR346W 673-686]
normalised SPOT signal, Boehringer light units (BLU); mean over the file's lines of this peptide [1]: 119 | normalised SPOT signal, Boehringer light units (BLU); mean over the file's lines of this peptide [2]: 74.7 | normalised SPOT signal, Boehringer light units (BLU); mean over the file's lines of this peptide [3]: 39.9 | normalised SPOT signal, Boehringer light units (BLU); mean over the file's lines of this peptide [4]: 43.8 | normalised SPOT signal, Boehringer light units (BLU); mean over the file's lines of this peptide [5]: 99.2

KFIPNKPYRQFNTW [YGR019W 339-352]
normalised SPOT signal, Boehringer light units (BLU); mean over the file's lines of this peptide [1]: 30.9 | normalised SPOT signal, Boehringer light units (BLU); mean over the file's lines of this peptide [2]: 55.9 | normalised SPOT signal, Boehringer light units (BLU); mean over the file's lines of this peptide [3]: 51.7 | normalised SPOT signal, Boehringer light units (BLU); mean over the file's lines of this peptide [4]: 1220 | normalised SPOT signal, Boehringer light units (BLU); mean over the file's lines of this peptide [5]: 417

ISTPEVPKKKIKTG [YIL010W 28-41]
normalised SPOT signal, Boehringer light units (BLU); mean over the file's lines of this peptide [1]: 275 | normalised SPOT signal, Boehringer light units (BLU); mean over the file's lines of this peptide [2]: 23.9 | normalised SPOT signal, Boehringer light units (BLU); mean over the file's lines of this peptide [3]: 0 | normalised SPOT signal, Boehringer light units (BLU); mean over the file's lines of this peptide [4]: 4970 | normalised SPOT signal, Boehringer light units (BLU); mean over the file's lines of this peptide [5]: 226

ITLPRRPAKKIQLG [YBR122C 41-54]
normalised SPOT signal, Boehringer light units (BLU); mean over the file's lines of this peptide [1]: 150 | normalised SPOT signal, Boehringer light units (BLU); mean over the file's lines of this peptide [2]: 106 | normalised SPOT signal, Boehringer light units (BLU); mean over the file's lines of this peptide [3]: 13700 | normalised SPOT signal, Boehringer light units (BLU); mean over the file's lines of this peptide [4]: 48600 | normalised SPOT signal, Boehringer light units (BLU); mean over the file's lines of this peptide [5]: 36800

KDYPLSPPKLTFTP [YMR022W 62-75]
normalised SPOT signal, Boehringer light units (BLU); mean over the file's lines of this peptide [1]: 73 | normalised SPOT signal, Boehringer light units (BLU); mean over the file's lines of this peptide [2]: 33.9 | normalised SPOT signal, Boehringer light units (BLU); mean over the file's lines of this peptide [3]: 25.5 | normalised SPOT signal, Boehringer light units (BLU); mean over the file's lines of this peptide [4]: 16 | normalised SPOT signal, Boehringer light units (BLU); mean over the file's lines of this peptide [5]: 10.6

KERPKPPNKGDVGR [YOR233W 333-346]
normalised SPOT signal, Boehringer light units (BLU); mean over the file's lines of this peptide [1]: 168 | normalised SPOT signal, Boehringer light units (BLU); mean over the file's lines of this peptide [2]: 23.8 | normalised SPOT signal, Boehringer light units (BLU); mean over the file's lines of this peptide [3]: 10.8 | normalised SPOT signal, Boehringer light units (BLU); mean over the file's lines of this peptide [4]: 326 | normalised SPOT signal, Boehringer light units (BLU); mean over the file's lines of this peptide [5]: 60.1

KALPKEPKKLLPNS [YIR010W 422-435]
normalised SPOT signal, Boehringer light units (BLU); mean over the file's lines of this peptide [1]: 208 | normalised SPOT signal, Boehringer light units (BLU); mean over the file's lines of this peptide [2]: 63.5 | normalised SPOT signal, Boehringer light units (BLU); mean over the file's lines of this peptide [3]: 44.4 | normalised SPOT signal, Boehringer light units (BLU); mean over the file's lines of this peptide [4]: 284 | normalised SPOT signal, Boehringer light units (BLU); mean over the file's lines of this peptide [5]: 2810

IYTPYIPFRNSRTW [YLR240W 75-88]
normalised SPOT signal, Boehringer light units (BLU); mean over the file's lines of this peptide [1]: 5520 | normalised SPOT signal, Boehringer light units (BLU); mean over the file's lines of this peptide [2]: 1450 | normalised SPOT signal, Boehringer light units (BLU); mean over the file's lines of this peptide [3]: 474 | normalised SPOT signal, Boehringer light units (BLU); mean over the file's lines of this peptide [4]: 3280 | normalised SPOT signal, Boehringer light units (BLU); mean over the file's lines of this peptide [5]: 683

KELPEFPIKKYHKR [YMR266W 741-754]
normalised SPOT signal, Boehringer light units (BLU); mean over the file's lines of this peptide [1]: 119 | normalised SPOT signal, Boehringer light units (BLU); mean over the file's lines of this peptide [2]: 22 | normalised SPOT signal, Boehringer light units (BLU); mean over the file's lines of this peptide [3]: 29.9 | normalised SPOT signal, Boehringer light units (BLU); mean over the file's lines of this peptide [4]: 1070 | normalised SPOT signal, Boehringer light units (BLU); mean over the file's lines of this peptide [5]: 6.2
